Reference: the DeepSol protein solubility set

Assay: soluble on expression in E. coli; label from the status in PepcDB or PDB records

Row | Sequence | soluble on expression in E. coli
1 | MGSDKIHHHHHHMNLRHLVFFKELARTQHMAKAAENLGISQPSLSYAIKKLEHELGVPLFEADGRNIKLTSIGGVYLKYVTATLNDLSQGNELVKQLMDPDTGHVKLGFTYTLGQQLVPELLSHFKNQSENQAITFELGQGNSGVLLQALADEKYDIVLASNVDRLGEQLTAHLFDFIPLVQQEIVAVVPNDHPAVQKNPLHVEDLAPYPMILFSQNSGLRPLIDQILSAAHVQPKVAYEVEEDYTMAGFVRYNMGVALMPYLPLLNPERVQIKHLADQPLQHQIYLVVRRSGFITPAVHRFQEFIRSYCWQHYTNQERSI | not soluble
2 | MTRQSLQQAAESRRSIYSLNKNLPVGKDEVVQIVEHAVLHTPSSFNSQSARVVVLFGEEHDKVWQFVEDALRAVVPADSFEPTAQKLNLFKAGAATILFYEDQNVVKGLQEQFPAYAANFPVWADQANAMVQYAVWTTLAAVGVGANLQHYNPLPDAAIAKAWNIPENWLLRAQMVIGGIEGAAGEKTFEPVAERLKVFGA | not soluble
3 | MGSDKIHHHHHHMIVTEYELLVCLAEELNMRKSAEKLFLSQPALSQRLQTIESRWNTKIFIRTQKGLLLTPEGEAIVRHASSVIEREHTIQEKLEAMEGVVRGTLRIACASVVAQMWLPRVLKAFSRTYPNVQISLVTGWSSEVTQQLAAGNVHIGIVRGSSTWKSVQKPLFNDKLILVDTEITKIEEVFQTNRPFIQFRSDSNYYQVIQDYWQRNFGKMPRQAMLMDQMETSRQMALNGIGFAILPEVTMIGYTDKINKIPLTEKDGSILSRETNLLTYEQSLSLPQVKAFLEITDKFLEQVK | not soluble
4 | MTGNEHSAIETYECDVLVAGSGASGMSAAITARYRGLDVLIVEKEPRFGGTTARSGGWLWIPGTSLAKAYGIEETPEQARTYLRHEAGNNFDGARIDAFLSAGPEAVDFFTTRTALRFDMPLVFPDYHAEAPGGAQGGRSMVTRPFDGRELGEQIRTLGMPLPELTVFGMMLGSGKEIIHFMRVTKSLTSAVYVAKRLSRHLMDVLHYGRGMTLTNGNALAGRLAKSALDLKIPMWLSSPVRELTVENGAVTGAIVSREGRKVRVRARQGVVLACGGFPHDVERRKKMFPHAPTGNEHFSPGPIGNTGDGLRLAESAGGHVEDRLPNAAAWVPVSLTTRKDGSKGVMPHFIDRAKPGVIAVMRDGRRFANEGNSYHDFVQAMVKAAKPGEEIAAYLVCDHKTLRKYGLGCVPPFPMPLGHHLSTGYLMRGDTLEALAAKAGIDATAFAETVRQFNTTAPLGHDAAFGKGSKAYNRYQGDALHGPNPCVAPIENGPFYAIKMVIGDLGTYAGIITDENARALDAEGRVIPGLYAAGNDMASIMGGNYPGAGITLGPALTFGYIAGRHLADSAAKRNAALEHHHHHH | not soluble
5 | MGSDKIHHHHHHTQTTEKENEFSMSMQIRPRAEYRNGALVPRNEGQKAASFINNRARLSLDYKRSDLEIKMSAQHVGVWGQDPQIDKNGRFILNEAWAKLDFGKGFFAQLGRQTLVYDDERILGGLDWNVAGRYHDALKLGYANKNNEIHAILAFNQNDEKTAGGTYYNSSIGQPYKNMQTVWYHYKADKIPFGASLLFMNLGLETGNQLTQDSHTRYLQTMGTYLTYKNSGWNLDGAFYYQTGKNKDAESVSAFMASATAAYAFNKTWGMVVSFDYLSGNEEGSSKFKAFDPLYGTHHKFYGSMDYFYASAFNKGFAPGLIDGRLGARFRASAKVDMELNYHYFATATEVDFKEDLKKSLGSEVDYQINWSVMKDVKLSAGYSFMLGTKTMDAVKGGNHKSWQDWGWVSVNINPKVFFTKW | not soluble
6 | MENKIQELTDKIYREGVEKGNEEAQRLIANAQEEAKKIIEDARKEADSIVAASRKSADELADNTKSELKLFSGQAVNALKSEIATMVTDKLITASVKDFAQDKDYLNAFIVALASKWSVDEPIVISTADAESLKKYFAAHAKALLDKGVTIEQVNGIKTLFTVSPADGSYKVNFGEEEFMNYFKAFLRPQLVEMLF | not soluble
7 | MTTAPAKISEYTVSTPDRTVASVRADGIVAATPLGSHGYAADAGGPHLAPGVSAAAVVPVSPFRVDRTNWVVCPPVSVTVARDETTVELHADGHAHGRVPVDSPVTLSWGTPLPIAVVSHAGTHGD | soluble
8 | MGSDKIHHHHHHMNIEGNIAIICITENGKKLALKINSLVNNCVIYQVKNKKSNLVVEETCVHTVQKKLSDFVGEIFSKFDYIVFIMATGIVVRSIAPYIISKFSDPAILVMDEKGKNVISLLSGHIGGANSLTQYISSLIDANPVITTATDINQKASLDMIAKKLNAHIDNFRESVKEVNSMLVNNKCVGLYVDEGYQVDTRGFKLIESKDELRDSFSNTYIEKLVVVSNKINCIEDIENLNLDNKFEHCYSTQKIIKVIPRDIVIGIGCRRNTDSELMYNSLEEFLNKQNIDIRAINTVGSIELKKDEKAIIELSKILKVPFKTFSVDEISKVDNLFDKSDFVKKNVGVYSVAEPVAYLLSKGNLLVEKHKYKGITFSVGRIKI | not soluble
9 | GAMATGSRIGGGIDVPVPRHSVGVVIGRSGEMIKKIQNDAGVRIQFKQDDGTGPEKIAHIMGPPDRCEHAARIINDLLQSLRSGPPGPPGGPGMPPGGRGRGRGQG | soluble
10 | MRFVMPGDRIGSAEEYVKGEGVYEEGGELFAAVAGKLIIKDRVAKVESISPIPEIVKGDVVLGRVVDLRNSIALIEVSSKKGENRGPSNRGIGILHVSNVDEGYVKEISEAVGYLDILKARVIGDNLRLSTKEEEMGVLRALCSNCKTEMVREGDILKCPECGRVEKRKISTDYGKGEW | soluble
11 | MIQFKNISKHYQLKGQTIHALDQINLDIPAGSIFGIIGYSGAGKSTLIRLINLLERPTHGQIIINQKDFTALNAQSLRQERANIGMIFQHFNLLQTKTVAANIEMPLKLLGYSKIEREKRLMELLDFIDLTHKKDAFPDELSGGQKQRVGIARALANHPKILLCDEATSALDPQTTKSVLALLKKINKEQGITIVMVTHEMDVIESICDHVAVMESGHVIETGPTVEIFSNPQHPTTKTFIQTVLQQHLPVNILSKLEHQHHHSIYRLQFLGKSAQEPVIQSMIKQFDISLNILFANMTEIDGTVIGQMFVQLLGDDTLIQQAIEFLERHGVSVNQSGEQV | not soluble
12 | MGSDKIHHHHHHQEPENQTLETILNRKSVRKYKDRPVEKEKIDKLIRAGMAAPSSRDRRPWEFIIVTDRKALDTMAEGLPFARMLKETRQAIVVCGDTIKSSNAWFLDCSAASQNLLLAAESMGLGAVWTAVYPYPDRIEIVRKELRLPDHIMPLNVIPVGYPMQKETPKNKYNVQQIHHNGW | not soluble
13 | MKTQVAIIGAGPSGLLLGQLLHKAGIDNVILERQTPDYVLGRIRAGVLEQGMVDLLREAGVDRRMARDGLVHEGVEIAFAGQRRRIDLKRLSGGKTVTVYGQTEVTRDLMEAREASGATTVYQAAEVRLHDLQGERPYVTFERDGERLRLDCDYIAGCDGFHGISSQSIPAERLKVFERVYPFGWLGLLADTPPVSHELIYANHPRGFALCSQRSATRSRYYVQVPLTEKVEDWSDERFWTELKARLPAEVAEKLVTGPSLEKSIAPLRSFVVEPMQHGRLFLAGDAAHIVPPTGAKGLNLAASDVSTLYRLLLKAYREGRGELLERYSAICLRRIWKAERFSWWMTSVLHRFPDTDAFSQRIQQTELEYYLGSEAGLATIAENYVGLPYEEIE | soluble
14 | MEVEVEKDCRTECSREREIEKERSKDEFHGLIEIDGECMQSGNRKWKRIDSAVKVAKKEKKKKMKDEEKKKEDEDNLQHTIQQSE | soluble
15 | MSLRLHFHTQEMPMPALLYKADPARAERWRVLFAEHAPDIEWRVWPDIGDPADIHYLGAWLAPDDLQDLLPNLKVLFALSAGVDQLDLSRIPKSLPVVRLLDPGISHGMCEYASFAVLSLHREMLRYRQQQVEGLWKAQPLIPANKRRVGVMGLGLQAQHILSSLKPFGFQLSGWARSAHQVEGVTCYAGEEQLSEFLGQCDILLCVLPLTAQTEGILNRQLFERLPEGAALINMGRGGHLVEADLLEALDSGQLSAAVLDVLQQEPAPADHPFWQHPKILLTPHVAAMTQPESAFPGLLDNIRRFERGEAMQGQVNRGEGHHHHHH | soluble
16 | EGFKKLELNYMKERSYEEAKEYLDRALKNSVLKRVRGLDKVGIICSGGVDSSLIAKLASLYCEVILYAVGTENSEDLIYAERLAKDLNLKLRKKIISEEEYEEYVFKVAKAIDEVDLMKIGVGIPIYVASEMANEDGLKVVLSGQGADELFGGYARHERIYRERGEEELKKELLKDVYNLYKVNLERDDHCTMANGVELRVPFLDEEVVEIALSIPIEYKMSELSNRPYAESNISLKSEPINGLKNTNLNIKCVRSVRKKILRDVASQYLPDYIAYRPKKAAQYGSG | soluble
